We go through 23 sequences from the Immune Epitope Database (IEDB).

Targets include HLA-A*68:02; HLA-A*02:06; HLA-A*02:03; HLA-A*02:02; HLA-A*02:01.
What all share (assay): IEDB peptide-MHC binding, purified MHC/competitive/radioactivity; ≥ and ≤ were set here for values at or beyond the usual limits of such assays
The mark [1] stands for this setting: source organism: Vaccinia virus WR.
Where [2] appears, read: source organism: Influenza A virus.

Consider FVATFRDML, for which the IC50 with HLA-A*68:02 (setting [1]) worked out at 12 nM; with HLA-A*02:06 (setting [1]), 487 nM; with HLA-A*02:03 (setting [1]), 206 nM; with HLA-A*02:02 (setting [1]), 2350 nM; with HLA-A*02:01 (setting [1]) it was 2260 nM.

As for FVATFRDMLL, the half-inhibitory concentration (IC50) with HLA-A*68:02 (setting [1]) came out at 409 nM; with HLA-A*02:06 (setting [1]), 4.4 nM; with HLA-A*02:03 (setting [1]), 18 nM; with HLA-A*02:02 (setting [1]), 0.7 nM; with HLA-A*02:01 (setting [1]), 16 nM.

On to FVDEFYAYL, for which the half-inhibitory concentration (IC50) came out at 38 nM with HLA-A*68:02 (source organism: SARS-CoV1); 0.36 nM with HLA-A*02:06 (source organism: SARS-CoV1); 2.6 nM with HLA-A*02:03 (source organism: SARS-CoV1); 0.089 nM with HLA-A*02:02 (source organism: SARS-CoV1); 0.22 nM with HLA-A*02:01 (source organism: SARS-CoV1).

As for FVDGVPFVV, the IC50 with HLA-A*68:02 (source organism: SARS-CoV1) worked out at 168 nM; with HLA-A*02:06 (source organism: SARS-CoV1) it was 0.91 nM; with HLA-A*02:03 (source organism: SARS-CoV1), 86 nM; with HLA-A*02:02 (source organism: SARS-CoV1), 9.6 nM; with HLA-A*02:01 (source organism: SARS-CoV1), 0.97 nM.

As for FVDTMSIYI, the IC50 in the assay with HLA-A*68:02 (setting [1]) was found to be 465 nM; in the assay with HLA-A*02:06 (setting [1]), 16 nM; with HLA-A*02:03 (setting [1]), 370 nM; in the assay with HLA-A*02:02 (setting [1]), 21 nM; with HLA-A*02:01 (setting [1]), 9.6 nM.

In the case of FVDTMSIYIA, the half-maximal inhibitory concentration (IC50) is 229 nM with HLA-A*68:02 (setting [1]); 1100 nM with HLA-A*02:06 (setting [1]); 2390 nM with HLA-A*02:03 (setting [1]); 154 nM with HLA-A*02:02 (setting [1]); 1630 nM with HLA-A*02:01 (setting [1]).

Regarding FVFNGTSWFI, the IC50 in the assay with HLA-A*68:02 (source organism: SARS-CoV1) worked out at 0.33 nM; with HLA-A*02:06 (source organism: SARS-CoV1) it was 0.44 nM; in the assay with HLA-A*02:03 (source organism: SARS-CoV1) it was 2.2 nM; with HLA-A*02:02 (source organism: SARS-CoV1) it was 1 nM; with HLA-A*02:01 (source organism: SARS-CoV1), 1.1 nM.

As to FVFTLTVPS, the IC50 in the assay with HLA-A*68:02 (setting [2]) was 25 nM; in the assay with HLA-A*02:06 (setting [2]) it was 18 nM; with HLA-A*02:03 (setting [2]), 270 nM; in the assay with HLA-A*02:02 (setting [2]) it was 394 nM; with HLA-A*02:01 (setting [2]) it was 514 nM.

On to FVKENERVNV, for which the IC50 with HLA-A*68:02 (setting [1]) was determined as 1290 nM; with HLA-A*02:06 (setting [1]), 683 nM; in the assay with HLA-A*02:03 (setting [1]), 12 nM; with HLA-A*02:02 (setting [1]), 186 nM; in the assay with HLA-A*02:01 (setting [1]), 270 nM.

Regarding FVLALYSPPL, the IC50 was determined as 263 nM with HLA-A*68:02 (setting [1]); 212 nM with HLA-A*02:06 (setting [1]); 38 nM in the assay with HLA-A*02:03 (setting [1]); 2.2 nM with HLA-A*02:02 (setting [1]); 979 nM with HLA-A*02:01 (setting [1]).

Take FVMCLEAKT: the IC50 with HLA-A*68:02 (setting [1]) was 1510 nM; with HLA-A*02:06 (setting [1]), 979 nM; in the assay with HLA-A*02:03 (setting [1]) it was 1940 nM; with HLA-A*02:02 (setting [1]), 609 nM; with HLA-A*02:01 (setting [1]), 3840 nM.

Turning to FVNFVKDMI, the IC50 in the assay with HLA-A*68:02 (setting [1]) stood at 0.62 nM; with HLA-A*02:06 (setting [1]), 229 nM; with HLA-A*02:03 (setting [1]), 124 nM; with HLA-A*02:02 (setting [1]) it was 55 nM; with HLA-A*02:01 (setting [1]) it was 1790 nM.

FVSTMPVET: the IC50 with HLA-A*68:02 (setting [1]) came to 325 nM; with HLA-A*02:06 (setting [1]), 1540 nM; in the assay with HLA-A*02:03 (setting [1]), 391 nM; with HLA-A*02:02 (setting [1]), 1220 nM; with HLA-A*02:01 (setting [1]) it was 841 nM.

For the sequence FVTDYVHEGV, the IC50 with HLA-A*68:02 (setting [1]) came out at 1.6 nM; with HLA-A*02:06 (setting [1]), 11 nM; with HLA-A*02:03 (setting [1]), 1.7 nM; with HLA-A*02:02 (setting [1]), 24 nM; with HLA-A*02:01 (setting [1]), 48 nM.

As to FVVFLLVTL, the IC50 with HLA-A*68:02 (source organism: SARS-CoV1) came to 120 nM; with HLA-A*02:06 (source organism: SARS-CoV1) it was 38 nM; in the assay with HLA-A*02:03 (source organism: SARS-CoV1), 1640 nM; with HLA-A*02:02 (source organism: SARS-CoV1) it was 217 nM; with HLA-A*02:01 (source organism: SARS-CoV1) it was 839 nM.

Turning to FVYVSVMNFI, the concentration for half-maximal inhibition (IC50) is 57 nM in the assay with HLA-A*68:02 (setting [1]); 7.5 nM with HLA-A*02:06 (setting [1]); 18 nM with HLA-A*02:03 (setting [1]); 76 nM with HLA-A*02:02 (setting [1]); 704 nM in the assay with HLA-A*02:01 (setting [1]).

GALDVSASV: the IC50 came out at 2.9 nM with HLA-A*68:02 (source organism: SARS-CoV1); 2.3 nM with HLA-A*02:06 (source organism: SARS-CoV1); 2.3 nM with HLA-A*02:03 (source organism: SARS-CoV1); 0.72 nM with HLA-A*02:02 (source organism: SARS-CoV1); 3.4 nM with HLA-A*02:01 (source organism: SARS-CoV1).

Take GIFVDTMSI: the IC50 turned out to be 3980 nM in the assay with HLA-A*68:02 (setting [1]); 1620 nM with HLA-A*02:06 (setting [1]); 936 nM with HLA-A*02:03 (setting [1]); 2880 nM with HLA-A*02:02 (setting [1]); 3020 nM with HLA-A*02:01 (setting [1]).

As to GILGFVFTLT, the IC50 in the assay with HLA-A*68:02 (setting [2]) worked out at 730 nM; with HLA-A*02:06 (setting [2]), 618 nM; with HLA-A*02:03 (setting [2]), 911 nM; in the assay with HLA-A*02:02 (setting [2]), 960 nM; with HLA-A*02:01 (setting [2]) it was 640 nM.

For the sequence GIYNCCESNI, the IC50 was determined as 3800 nM with HLA-A*68:02 (setting [1]); 290 nM with HLA-A*02:06 (setting [1]); 140 nM with HLA-A*02:03 (setting [1]); 68 nM with HLA-A*02:02 (setting [1]); 331 nM in the assay with HLA-A*02:01 (setting [1]).

Turning to GLIAIVMVTI, the IC50 with HLA-A*68:02 (source organism: SARS-CoV1) was determined as 1670 nM; in the assay with HLA-A*02:06 (source organism: SARS-CoV1), 137 nM; with HLA-A*02:03 (source organism: SARS-CoV1) it was 19 nM; in the assay with HLA-A*02:02 (source organism: SARS-CoV1), 7.6 nM; with HLA-A*02:01 (source organism: SARS-CoV1) it was 61 nM.

For the sequence GLMWLSYFV, the IC50 with HLA-A*68:02 (source organism: SARS-CoV1) worked out at 44 nM; with HLA-A*02:06 (source organism: SARS-CoV1) it was 0.97 nM; with HLA-A*02:03 (source organism: SARS-CoV1), 0.82 nM; with HLA-A*02:02 (source organism: SARS-CoV1), 0.2 nM; with HLA-A*02:01 (source organism: SARS-CoV1), 0.71 nM.

Regarding GLSDRVVFV, the IC50 in the assay with HLA-A*68:02 (source organism: SARS-CoV1) turned out to be 1170 nM; with HLA-A*02:06 (source organism: SARS-CoV1) it was 69 nM; with HLA-A*02:03 (source organism: SARS-CoV1), 1.1 nM; with HLA-A*02:02 (source organism: SARS-CoV1), 1 nM; in the assay with HLA-A*02:01 (source organism: SARS-CoV1), 3.1 nM.

A word on the IC50: it is the concentration needed to halve the response being measured.
